In patent US7183387 (Genentech, dated 2007):
Residue numbers refer to the chain shown, from its start. Numbers in names are those of the source.

B1: anti-IgE E27 IgG1 variant S267(280)A/H268(281)A (antibody)
heavy: not shown
light: DIQLTQSPSSLSASVGDRVTITCRASKPVDGEGDSYLNWYQQKPGKAPKLLIYAASYLESGVPSRFSGSGSGTDFTLTISSLQPEDFATYYCQQSHEDPYTFGQGTKVEIKRTVAAPSVFIFPPSDEQLKSGTASVVCLLNNFYPREAKVQWKVDNALQSGNSQESVTEQDSKDSTYSLSSTLTLSKADYEKHKVYACEVTHQGLSSPVTKSFNRGEC
notes: Fc variant of E27; also called IG2 96; Ser267Ala/His268Ala
B2: anti-IgE E27 IgG1 variant S267(280)G (antibody)
heavy: not shown
light: B1 light
notes: Fc variant of E27; also called IG2 189; Ser267Gly
B3: anti-IgE E27 IgG1 variant H268(281)A (antibody)
heavy: not shown
light: B1 light
notes: Fc variant of E27; also called IG2 16; G16
B4: anti-IgE E27 IgG1 variant V305(324)A (antibody)
heavy: not shown
light: B1 light
notes: Fc variant of E27; also called IG2 40; Val305Ala
B5: anti-IgE E27 IgG1 variant N315(334)A (antibody)
heavy: not shown
light: B1 light
notes: Fc variant of E27; also called IG2 45; Asn315Ala
B6: anti-IgE E27 IgG1 variant K317(336)A (antibody)
heavy: not shown
light: B1 light
notes: Fc variant of E27; also called IG2 46; Lys317Ala
B7: anti-IgE E27 IgG1 variant T307(326)A (antibody)
heavy: not shown
light: B1 light
notes: Fc variant of E27; also called IG2 41; Thr307Ala
B8: anti-IgE E27 IgG1 variant K320(339)A (antibody)
heavy: not shown
light: B1 light
notes: Fc variant of E27; also called IG2 48; Lys320Ala
B9: anti-IgE E27 IgG1 variant Asp270Ala (antibody)
heavy: not shown
light: B1 light
notes: also called D270(283)A; D283A
B10: E27 IgG1 variant E333(352)A/K334(353)A (antibody)
heavy: not shown
light: B1 light
B11: E27 IgG1 variant T256(269)A/S298(317)A (antibody)
heavy: not shown
light: B1 light
notes: also called IG2 1059
B12: E27 IgG1 variant S267(280)A/R255(268)A (antibody)
heavy: not shown
light: B1 light
notes: also called IG2 247
B13: E27 IgG1 variant T256(269)A/D280(295)A/R292(309)A/S298(317)A/T307(326)A (antibody)
heavy: EVQLVESGGGLVQPGGSLRLSCAVSGYSITSGYSWNWIRQAPGKGLEWVASIKYSGETKYNPSVKGRITISRDDSKNTFYLQMNSLRAEDTAVYYCARGSHYFGHWHFAVWGQGTLVTVSSASTKGPSVFPLAPSSKSTSGGTAALGCLVKDYFPEPVTVSWNSGALTSGVHTFPAVLQSSGLYSLSSVVTVPSSSLGTQTYICNVNHKPSNTKVDKKVEPKSCDKTHTCPPCPAPELLGGPSVFLFPPKPKDTLMISRAPEVTCVVVDVSHEDPEVKFNWYVAGVEVHNAKTKPAEEQYNATYRVVSVLAVLHQDWLNGKEYKCKVSNKALPAPIEKTISKAKGQPREPQVYTLPPSREEMTKNQVSLTCLVKGFYPSDIAVEWESNGQPENNYKTTPPVLDSDGSFFLYSKLTVDKSRWQQGNVFSCSVMHEALHNHYTQKSLSLSPGK
light: B1 light
B14: E27 IgG1 variant S298(317)A/E333(352)A/K334(353)A (antibody)
heavy: B13 heavy with A260T, A284D, A296R, A311T, E337A, K338A
light: B1 light
notes: also called IG2 110
B15: E27 IgG1 variant S298(317)A/E333(352)A (antibody)
heavy: not shown
light: B1 light
B16: E27 IgG1 variant S267(280)A/E258(271)A (antibody)
heavy: not shown
light: B1 light
B17: E27 IgG1 variant S267(280)A/E258(271)A/D280(295)A/R255(268)A (antibody)
heavy: B13 heavy with R259A, A260T, E262A, S271A, A296R, A302S, A311T
light: B1 light
notes: also called IG2 264
B18: E27 IgG1 variant S267(280)A/D280(295)A (antibody)
heavy: not shown
light: B1 light
notes: also called IG2 248
B19: E27 IgG1 variant S298(317)A/K334(353)A (antibody)
heavy: not shown
light: B1 light
B20: E27 IgG1 variant T256(269)A/D280(295)A/S298(317)A/T307(326)A (antibody)
heavy: B13 heavy with A296R
light: B1 light
notes: also called IG2 1051
B21: E27 IgG1 variant S267(280)A/H268(281)A (antibody)
heavy: not shown
light: B1 light
notes: also called IG2 96
B22: E27 IgG1 variant S267(280)A/E293(310)A (antibody)
heavy: not shown
light: B1 light
notes: also called IG2 251
B23: E27 IgG1 variant S267(280)A/E272(285)A (antibody)
heavy: not shown
light: B1 light
notes: also called IG2 250

What follows are binders tested against T1, human FcγRIIA-R131 α subunit extracellular domain-His6-GST fusion (human, UniProt P12318 34-217) (assay: ELISA, IgG complex, receptor coated).
T1 construct: ECD-6His-GST fusion made in 293 cells; also called FcγRIIA-Arg131; not shown: glutathione S transferase (GST)
T1 sequence: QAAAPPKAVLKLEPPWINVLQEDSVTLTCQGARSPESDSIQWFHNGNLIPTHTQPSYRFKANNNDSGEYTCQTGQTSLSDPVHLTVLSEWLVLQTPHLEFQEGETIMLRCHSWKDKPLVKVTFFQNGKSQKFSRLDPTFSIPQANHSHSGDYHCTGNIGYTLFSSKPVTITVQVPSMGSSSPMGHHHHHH

Binder | ratio of binding, variant/native IgG1 (mean) [ratio]
B1 | 1.54
B2 | 1.21
B3 | 1.22
B4 | 1.12
B5 | 1.15
B6 | 1.13
B7 | 1.19
B8 | 1.12

Each binder was assayed against T2, human FcγRIIA-H131 α subunit extracellular domain-His6-GST fusion (human, UniProt P12318 34-217) (assay: ELISA, IgG complex, receptor coated).
T2 construct: ECD-6His-GST fusion made in 293 cells; also called FcγRIIA-His131; not shown: glutathione S transferase (GST)
T2 sequence: T1 sequence with R134H

Binder | ratio of binding, variant/native IgG1 (mean) [ratio]
B1 | 1.07
B2 | 0.59
B3 | 1.09
B4 | 1.04
B5 | 1.11
B6 | 1.04
B7 | 1.37
B8 | 1.16

These binders were tested against T3, human FcγRIIIA-F158 α subunit extracellular domain-His6-GST fusion (human, UniProt P08637 17-208) (assay: ELISA, IgG complex, receptor coated).
T3 construct: ECD-6His-GST fusion made in 293 cells; also called FcγRIIIA-Phe158; not shown: glutathione S transferase (GST)
T3 sequence (P08637 other isoform, or with tags, fused parts or gaps, form in doubt): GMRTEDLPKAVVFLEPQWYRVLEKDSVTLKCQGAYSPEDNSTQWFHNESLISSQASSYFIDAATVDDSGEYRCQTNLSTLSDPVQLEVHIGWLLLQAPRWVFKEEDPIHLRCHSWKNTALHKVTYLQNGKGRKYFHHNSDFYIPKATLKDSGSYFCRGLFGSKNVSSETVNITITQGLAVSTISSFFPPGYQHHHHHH

Binder | ratio of binding, variant/native IgG1 (mean) [ratio]
B1 | 0.84
B2 | 0.09
B3 | 0.52
B4 | 0.84
B5 | 1.07
B6 | 1.1
B7 | 1.12
B8 | 0.87

What follows are binders tested against T4, human FcγRIIA-H131 α subunit extracellular domain-His6-GST fusion protein (human, UniProt P12318 34-217) (assay: ELISA, IgG:IgE hexamer on coated FcγRIIA-H131-GST).
T4 construct: also called FcγRIIA-His131; not shown: glutathione S-transferase (GST)
T4 sequence: T1 sequence with R134H

Binder | ratio of binding of the variant to that of native IgG1
B9 | 0.45 ratio (variant/native IgG1)

The binders below were run against T4, human FcγRIIA-H131 α subunit … (assay: ELISA; binding ratio on FcγRIIA-H131 divided by that on FcγRIIA-R131).

Binder | H131/R131
B9 | 16.6 ratio (H131 value/R131 value)

The binders below were run against T5, human FcγRIIB α subunit extracellular domain-6His-GST fusion (human, UniProt P31994 43-217) (assay: ELISA, IgG:IgE hexamers on receptor-GST).
T5 construct: not shown: glutathione S-transferase (GST)
T5 sequence: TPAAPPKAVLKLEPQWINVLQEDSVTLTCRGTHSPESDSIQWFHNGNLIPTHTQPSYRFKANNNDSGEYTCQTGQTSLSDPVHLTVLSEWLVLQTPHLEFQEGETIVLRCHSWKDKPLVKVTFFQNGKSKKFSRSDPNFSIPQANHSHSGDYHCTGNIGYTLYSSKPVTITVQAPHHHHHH

Binder | ratio to native IgG1
B10 | 0.63
B11 | 0.22
B12 | 1.72
B13 | 0.08
B14 | 0.15
B15 | 0.16
B16 | 2.01
B17 | 2.03
B18 | 1.96
B19 | 0.19
B20 | 0.3
B21 | 1.56
B22 | 1.85
B23 | 1.82

Each binder was assayed against T6, human FcγRIIIA-F158 α subunit extracellular domain-6His-GST fusion (human, UniProt P08637 17-208) (assay: ELISA, IgG:IgE hexamers on receptor-GST).
T6 construct: also called FcγRIIIA-Phe158; not shown: glutathione S-transferase (GST)
T6 sequence (P08637 other isoform, or with tags, fused parts or gaps, form in doubt): as the sequence (P08637 other isoform, or with tags, fused parts or gaps, form in doubt) above

Binder | ratio to native IgG1
B10 | 1.3
B11 | 1.41
B12 | 0.88
B13 | 0.9
B14 | 1.51
B15 | 1.53
B16 | 1.04
B17 | 0.89
B18 | 1.13
B19 | 1.62
B20 | 1.21
B21 | 0.96
B22 | 0.92
B23 | 0.95

The binders below were run against T7, human FcγRIIA-R131 α subunit extracellular domain-6His-GST fusion (human, UniProt P12318 34-217) (assay: ELISA, IgG:IgE hexamers on receptor-GST).
T7 construct: also called FcγRIIA-Arg131; not shown: glutathione S-transferase (GST)
T7 sequence: T1 sequence

Binder | ratio to native IgG1
B10 | 0.72
B11 | 0.44
B12 | 1.6
B13 | 0.11
B14 | 0.34
B15 | 0.34
B16 | 1.62
B17 | 1.48
B18 | 1.54
B19 | 0.41
B20 | 0.47
B21 | 1.41
B22 | 1.67
B23 | 1.51
